Substitutions are numbered along the chain they refer to.
B1: GFAP-16 (antibody, V domains shown)
VH: QVQLQQSDAELVKPGASVKISCKASGYTFTDHTIHWVKQRPEQGLEWIGYIYPGDGSTKYNEKFKGKATLTADKSSSTVYMQLNSLTSEDSAVYFCARPAPYWNFDVWGAGTTVTVSS
VL: DIQMTQSPSSLSASLGGKVTITCKASQDIKKNIAWYQHKPGKGPRLLIWYTSTLQPGIPSRFSGSGSGRDYSFSISNLEPEDIATYYCLQYDHLRTFGGGTKLEIK
notes: also called mouse anti-GFAP antibody GFAP-16
B2: GFAP-18 (antibody, V domains shown)
VH: EVILVESGGGLVKPGGSLKVSCAVSGFTFSNFAMSWVRQTPEKRLEWVASISSGGTTYYPDNVKGRFTISRDNARNIMYLQMSSLRSEDTAMYFCARGGLHYFGYWGQGTTLTVSS
VL: DIVMTQSHKFMSTSVGDRVSITCKASQDVNTAVAWYQQKPGQSLKLLIYSASYRYIGVPDRFTGSGSGTDFTFTINSVQAEDLAVYYCHQYYSTPLTFGTGTKLELK
notes: also called mouse anti-GFAP antibody GFAP-18
B3: GFAP-7 (antibody, V domains shown)
VH: EVQLLQSGTVLARPGASVKMSCKASGYSFTSYWMHWIKQRPGQGLEWIGAIHPGNRDTSYNQKFKDKAKLTAVTSASTAYMELSSLTNEDSAVYFCTREDYWGQGTTLTVSS
VL: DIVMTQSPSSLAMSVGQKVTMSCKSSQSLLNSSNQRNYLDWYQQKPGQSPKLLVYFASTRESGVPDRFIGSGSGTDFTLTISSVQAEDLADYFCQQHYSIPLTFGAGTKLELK
notes: Same variable domains as GFAP-8; also called mouse anti-GFAP antibody GFAP-7
B4: GFAP-8 (antibody, V domains shown)
VH: B3 VH
VL: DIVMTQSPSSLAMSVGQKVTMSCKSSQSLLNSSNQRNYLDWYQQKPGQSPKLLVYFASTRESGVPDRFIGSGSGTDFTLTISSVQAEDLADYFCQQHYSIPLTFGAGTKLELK
notes: Same variable domains as GFAP-7; also called mouse anti-GFAP antibody GFAP-8
B5: GFAP-4 (antibody, V domains shown)
VH: B3 VH
VL: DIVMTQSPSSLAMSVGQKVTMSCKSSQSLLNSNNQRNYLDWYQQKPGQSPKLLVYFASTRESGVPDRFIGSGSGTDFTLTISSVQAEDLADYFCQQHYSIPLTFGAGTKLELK
notes: also called mouse anti-GFAP antibody GFAP-4
B6: GFAP-3 (antibody, V domains shown)
VH: EVKLEESGGGLVQPGGSMKLSCVASGFTFTNYWMSWVRQSPEKGLEWVAQIRLKSDNYATHYAESVKGRFTISRDDSKSSVYLQMNNLRAEDTGIYYCTGGEFLSWFAYWGQGTLVTVSA
VL: DIVMSQSPSSLAVSAGEKVTMSCKSSQSLFNSRTRKNYLAWYQQKPGQSPKLLIYWASTRESGVPDRFTGSGSGTDFTLTISSVQAEDLAVYYCKQSYYLYTFGSGTKLEIK
notes: also called mouse anti-GFAP antibody GFAP-3
B7: GFAP-19 (antibody, V domains shown)
VH: EVQLVESGGGLVKPGGSPKLSCAASGFAFSSYDMSWVRQTPEKRLEWVAYISSGGGSTYYPDTMKGRFTISRDNAKNTLYLQMSSLKSEDTAMYYCARHYGTYLYYLDYWGQGTTLTVSS
VL: DIVLTQSPATLSVTPGDRVSLSCRASQNISDFLHWYQQKSHESPRLLIKYASQSISGIPSRFSGSGSGSDFTLSINSVEPEDVGVYYCQNGHSFPPTFGGGTKLEIK
notes: also called mouse anti-GFAP antibody GFAP-19
B8: GFAP-6 (antibody, V domains shown)
VH: EVQLQQSGAEFVKPGASVKLSCTASGFNIKDTDMHWVRQRPEQGLESIGLIDPAIGNTKYDPKFQGKATITADTSSNAAYLQLSSLTSEDTAVYYCARSDRYLAWFAYWGQGTLVTVSA
VL: B7 VL with L4M, N28S, E42G, A51S, S93T, P96Y
notes: also called mouse anti-GFAP antibody GFAP-6; HRP-labeled anti-GFAP antibody
B9: GFAP-11 (antibody, V domains shown)
VH: QIQLVQSGPELKKPGETVKISCKASGYTFTNYGMNWVKQAPGEGLKWMGWINTNIGEPTYAEEFKGRFAFSLEASASTAYLQINNLKNEDTATYFCARWKNYGYFDYWGQGTTLTVSS
VL: QIVLTQSPAIMSASLGERVTMTCTASSSVSSSYLHWYQQKPGSSPKLWIYSTSNLASGVPARFSGSGSGTSYSLTISSLEAEDAATYYCHQYHRSPYTFGGGTKLEIK
notes: also called mouse anti-GFAP antibody GFAP-11
B10: GFAP-12 (antibody, V domains shown)
VH: QVQLQQSGAELMKPGASVKISCKATGYTFSNYWIEWVKQRPGHGLEWIGEILPGSGSTNYNEKFKGKATFTADTSSNTAYMQLSSLTSEDSAVYYCAIYYGNYAGAMDYWGQGTSVTVSS
VL: DIQMTQSPASLSASVGETVTITCRASENIYSYLAWYQQKQGKSPQLLVYNAKTLAEGVPSRFSGSGSGTQFSLKINSLQPEDFGSYYCQLHYGTPYTFGSGTKLEIK
notes: also called mouse anti-GFAP antibody GFAP-12
B11: GFAP-14 (antibody, V domains shown)
VH: DVQLVESGGGSVQPGGSRKLSCAASGFTFSSFGMHWVRQAPEKGLEWVAYISSDSNTVYYADTVKGRFTISRDNPKNTLFLQMTSLRSEDTAMYYCARYAMDYWGQGTSVTVSS
VL: QIVLTQSPALMSASPGEKVTMTCSASSSVSYMYWYQQKPRSSPKPWIYLTSNLASGVPARFSGSGSGTSYSLTISSMEAEDAATYYCQQWSSNPPTFGAGTKLELK
notes: also called mouse anti-GFAP antibody GFAP-14
B12: GFAP-17 (antibody, V domains shown)
VH: EVKLEESGGGLVQPGGSMKLSCVASGFTFSYYWMSWVRQSPEKGLEWIAEIRLKSNIYATHYAASVKGRFTISRDDSKSSVYLQMNNLRAEDTGIYFCTRFGTGAMDYWGQGTSVTVSS
VL: DIVMSQSPSSLAVSVGEKVTMSCKSSQSLLYRTNQKNYLAWYQQKPGQSPKLLIYWASSRESGVPDRFSGSGSGTDFTLTISSVKAEDLAVYYCQQYYSYPWTFGGGTKLEIK
notes: also called mouse anti-GFAP antibody GFAP-17
B13: GFAP-10 (antibody, V domains shown)
VH: EVKLVESGGGLVKPGGSLKLSCAASGFTFSYYAMSWVRQTPEKRLEWVASISSGGTTYHPDSVKGRFTISRDNARNILYLQMSSLRSEDTAMYYCARGGHWYFDVWGAGTTVTVSS
VL: QIVLTQSPAIMSASPGEKVTMTCSASSSVSYMHWYQQKSGTSPKRWIYDTSKLASGVPARFSGSGSGTSYSLTISSMEAEDAATYYCQQWSTNPLTFGAGTKLDLK
notes: also called mouse anti-GFAP antibody GFAP-10
B14: GFAP-13 (antibody, V domains shown)
VH: EVLLQQSGPELVKPGASVKMSCKTSGYTFANYIMHWVKQTPGQGLEWIGFINPYNDYTEYNEKFKGKATLTSDKSSSTAYMEFSGLTSEDSAVYYCSTATFAYWGQGTLVTVSA
VL: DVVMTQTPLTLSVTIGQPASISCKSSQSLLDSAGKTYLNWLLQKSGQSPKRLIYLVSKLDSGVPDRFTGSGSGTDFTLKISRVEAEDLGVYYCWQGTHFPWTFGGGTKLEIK
notes: also called mouse anti-GFAP antibody GFAP-13
B15: GFAP-1 (antibody, V domains shown)
VH: EVHLQQSGTVLARPGASVKMSCKASGYSFTSYWMHWVKQRPGQGLEWIGAFYPENSDTNYNQKFKGKARLTAVTSANTAYMELNSLTNEDSAVYYCTRPLLFSAYFDFWGQGTTLTVSS
VL: DVLMTQTPLSLPVSLGDQASISCRSSQSIVHSYGNTYLEWYLQKPGLSPKLLIYKVSNRFSGVPDRFSGSGSGTDFTLTISRVEAEDLGVYYCFQGSHVPYTFGGGTKLEIK
notes: also called mouse anti-GFAP antibody GFAP-1
B16: GFAP-9 (antibody, V domains shown)
VH: DVQLQESGPGLVKPSQSLSLTCSVTGYSITSGFYWSWIRQFPGNKLEWMGYISYDGSNNYNPSLKNRISITRDTSKNQFFLKLNSVTTEDTATYYCARAYGYDGAWFAYWGQGTLVTVSA
VL: DIVMTQSQKFMSTSVGDRVSITCKASQNVRTAVAWYQQKPGQSPKALIYLASNRHTGVPDRFTGSGSGTDFTLTISNVQSEDLADYFCLQHWNNPYTFGGGTKLEIK
notes: also called mouse anti-GFAP antibody GFAP-9
B17: GFAP-15 (antibody, V domains shown)
VH: DVQLVESGGGLLEPGGSRKLSCAASGFTFSSFGMHWVRQAPEKGLEWVAYISSGSRTIFYADTVKGRFTISRDNPKNTLFLQMTSLRSGDTAMYYCVRGGYGSSFDYWGQGTTLTVSS
VL: DVVMTQTPLSLPVSLGDQASISCRSSQSLVYSNGNIYLHWYLQKPGQSPKLLIYKVSNRFSGVPDRFSGSGSGTDFTLKISRVEAEDLGVYFCSQSTHVPYTFGGGTKLEIK
notes: also called mouse anti-GFAP antibody GFAP-15
B18: GFAP-5 (antibody, V domains shown)
VH: EVQLVESGGGLVKPGGSLKLSCAASGFTFSAYGMHWVRQAPEKGLEWIAYISSGSSTIYYADTVKGRFTISRDNAKNTLFLQMTSLRSEDTAMYYCASSYALDYWGQGTSVTVSS
VL: B17 VL with I36T, G105S
notes: also called mouse anti-GFAP antibody GFAP-5
B19: GFAP-2 (antibody, V domains shown)
VH: DVQLVESGGGLVQPGGSRKLSCAASGFTFSSFGMHWVRQAPEKGLEWVAYISSGSSIIYYADTVKGRFTISRDNPKNTLFLQMTSLRSEDTAMYYCTGSDWGSFAYWGQGTLVTVSA
VL: B17 VL with I36T, S61F
notes: also called mouse anti-GFAP antibody GFAP-2

What follows are binders tested against T1, Polyhistidine-tagged recombinant human GFAP expressed from E. coli (human, UniProt P14136 1-432) (assay: BLI (Octet QKe); His-tagged GFAP on anti-Penta-HIS sensor, antibody in solution).
T1 construct: also called His-tagged GFAP; not shown: polyhistidine tag
T1 sequence (P14136 whole entry): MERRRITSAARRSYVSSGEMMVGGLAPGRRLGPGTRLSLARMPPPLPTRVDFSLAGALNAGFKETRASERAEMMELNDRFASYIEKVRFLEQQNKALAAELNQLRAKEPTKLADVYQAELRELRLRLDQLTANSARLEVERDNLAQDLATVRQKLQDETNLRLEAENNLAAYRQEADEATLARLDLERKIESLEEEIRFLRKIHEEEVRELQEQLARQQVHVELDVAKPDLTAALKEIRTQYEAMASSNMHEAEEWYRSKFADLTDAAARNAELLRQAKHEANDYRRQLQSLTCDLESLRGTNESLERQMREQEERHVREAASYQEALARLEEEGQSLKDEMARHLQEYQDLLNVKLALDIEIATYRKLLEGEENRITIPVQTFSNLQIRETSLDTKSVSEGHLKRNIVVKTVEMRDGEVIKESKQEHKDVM
Protocol: The rates of association (kₒₙ) and dissociation (koff) of the anti-GFAP antibodies were determined by bio-layer interferometry using an Octet QK^e instrument according to the manufacturer's instructions (ForteBio). See Tobias et al., Biomolecular Binding Kinetic Assays in the Octet Platform, Application Note 14, ForteBio, Div. of Pall Life Sciences, 2013. Polyhistidine-tagged recombinant human GFAP expressed from E. coli was used as the antigen. The antigen was bound at a concentration of 8.3 μg/ml to an anti-Penta-HIS(HIS1K) capture biosensor containing an anti-histidine antibody (ForteBio) for use with the Octet QK^e instrument.
A Kd of 0.273 nM, a koff of 4.7e-05 s⁻¹ and a kon of 173000 M⁻¹ s⁻¹ were found for B1 in this work. A Kd of 0.0737 nM, a koff of 2.5e-05 s⁻¹ and a kon of 344000 M⁻¹ s⁻¹ were found for B2 in this work. A Kd of 0.856 nM, a koff of 5.8e-05 s⁻¹ and a kon of 67800 M⁻¹ s⁻¹ were found for B3 in this work. A Kd of 1.11 nM, a koff of 0.000133 s⁻¹ and a kon of 120000 M⁻¹ s⁻¹ were found for B4 in this work. A Kd of 2.93 nM, a koff of 0.000158 s⁻¹ and a kon of 53700 M⁻¹ s⁻¹ were found for B5 in this work. A Kd of 12 nM, a koff of 0.000698 s⁻¹ and a kon of 58000 M⁻¹ s⁻¹ were found for B6 in this work. A Kd of 0.423 nM, a koff of 6.4e-05 s⁻¹ and a kon of 151000 M⁻¹ s⁻¹ were found for B7 in this work. A Kd of 1.07 nM, a koff of 0.000124 s⁻¹ and a kon of 116000 M⁻¹ s⁻¹ were found for B8 in this work. A Kd of 0.396 nM, a koff of 0.000125 s⁻¹ and a kon of 315000 M⁻¹ s⁻¹ were found for B9 in this work. A Kd of 13.3 nM, a koff of 0.00024 s⁻¹ and a kon of 18000 M⁻¹ s⁻¹ were found for B10 in this work. A Kd of 0.28 nM, a koff of 8.4e-05 s⁻¹ and a kon of 299000 M⁻¹ s⁻¹ were found for B11 in this work. A Kd of 0.208 nM, a koff of 1.8e-05 s⁻¹ and a kon of 86600 M⁻¹ s⁻¹ were found for B12 in this work. A Kd of less than 0.001 nM, a koff of 1e-07 s⁻¹ and a kon of 53300 M⁻¹ s⁻¹ were found for B13 in this work. A Kd of 0.6 nM, a koff of 0.000194 s⁻¹ and a kon of 324000 M⁻¹ s⁻¹ were found for B14 in this work. A Kd of 0.0107 nM, a koff of 1.7e-06 s⁻¹ and a kon of 162000 M⁻¹ s⁻¹ were found for B15 in this work. A Kd of 18 nM, a koff of 0.000701 s⁻¹ and a kon of 39000 M⁻¹ s⁻¹ were found for B16 in this work. A Kd of 0.202 nM, a koff of 0.000231 s⁻¹ and a kon of 1.15e+06 M⁻¹ s⁻¹ were found for B17 in this work. A Kd of 5.36 nM, a koff of 0.000107 s⁻¹ and a kon of 20000 M⁻¹ s⁻¹ were found for B18 in this work. A Kd of 0.0557 nM, a koff of 3.3e-05 s⁻¹ and a kon of 593000 M⁻¹ s⁻¹ were found for B19 in this work.
